Target: domain 4 of the anthrax protective antigen (Bacillus anthracis) (UniProt P13423)
Experiment: cross-linking

Substance	Experimental Crosslinking (%)
M18 scFv with L-DOPA at position H_D54	30.4%
M18 scFv with L-DOPA at position H_D56	36.2%
M18 scFv with L-DOPA at position H_G53	40.3%
M18 scFv with L-DOPA at position H_G55	5.1%
M18 scFv with L-DOPA at position H_N58	24.4%
M18 scFv with L-DOPA at position H_S31	51.9%
M18 scFv with L-DOPA at position H_W33	13.9%
M18 scFv with L-DOPA at position H_Y52	19.7%

— article PMC4086636
